From US20180009859A1, “PHARMACOLOGICAL MODULATORS OF GABAA RECEPTORS AND THEIR USE” (priority 2015, published 2018)
Where two headings read alike, the source gives them in different places.

Key:
[1] = biological target: GABAA receptors in rat brain synaptic plasma membranes (SPMs) (rat)
[2] = biological target: GABAA receptors in rat brain synaptic plasma membranes (SPMs) (rat); experiment: ratio of the kinetic constants, radioligand binding to rat brain SPMs
[3] = biological target: GABAA receptors in rat brain synaptic plasma membranes (SPMs) (rat); remark: listed apart in the source
[4] = biological target: GABAA receptors in rat brain synaptic plasma membranes (SPMs) (rat); remark: listed apart in the source
GABAA receptors in SPMs [5] = assay type: binding, rat; conditions: for EC50: sigmoidal dose-response fit, read-out: EC50 for reducing ^125I-MmTX2 binding to SPMs; for displacing ^125I-rMmTX2 (in words): SPMs; for Ki: read-out: equilibrium inhibition constant (Ki)
GABAA receptors in SPMs [6] = experiment: [^3H]muscimol competition for binding to SPMs; design: species or system rat
[7] = system: GABAA receptors of hippocampal neurons; assay type: cell-based, mouse
mice [8] = conditions: injection into mouse brain
mice [9] = conditions: for activity when injected intravenously: mouse, in vivo
GABAA receptors in SPMs [10] = assay type: binding, rat
α1β2γ2 GABAA receptor = α1β2γ2 GABAA receptor (Rattus norvegicus, UniProt P62813+P63138); assay type: cell-based
α1β2γ2 GABAA receptor, sequence (P63138 25-474): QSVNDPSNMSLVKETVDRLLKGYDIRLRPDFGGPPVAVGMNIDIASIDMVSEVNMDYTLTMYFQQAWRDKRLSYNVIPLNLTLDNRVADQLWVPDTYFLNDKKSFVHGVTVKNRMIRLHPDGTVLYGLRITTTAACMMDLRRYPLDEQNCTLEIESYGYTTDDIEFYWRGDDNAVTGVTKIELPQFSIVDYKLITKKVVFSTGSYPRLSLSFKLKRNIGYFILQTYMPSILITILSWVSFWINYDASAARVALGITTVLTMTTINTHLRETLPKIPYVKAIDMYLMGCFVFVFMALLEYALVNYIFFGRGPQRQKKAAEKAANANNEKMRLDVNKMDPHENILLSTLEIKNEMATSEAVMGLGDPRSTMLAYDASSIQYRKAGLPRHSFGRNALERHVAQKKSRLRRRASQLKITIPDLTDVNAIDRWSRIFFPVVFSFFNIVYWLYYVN
α1β2γ2 GABAA receptor, sequence (P62813 28-455): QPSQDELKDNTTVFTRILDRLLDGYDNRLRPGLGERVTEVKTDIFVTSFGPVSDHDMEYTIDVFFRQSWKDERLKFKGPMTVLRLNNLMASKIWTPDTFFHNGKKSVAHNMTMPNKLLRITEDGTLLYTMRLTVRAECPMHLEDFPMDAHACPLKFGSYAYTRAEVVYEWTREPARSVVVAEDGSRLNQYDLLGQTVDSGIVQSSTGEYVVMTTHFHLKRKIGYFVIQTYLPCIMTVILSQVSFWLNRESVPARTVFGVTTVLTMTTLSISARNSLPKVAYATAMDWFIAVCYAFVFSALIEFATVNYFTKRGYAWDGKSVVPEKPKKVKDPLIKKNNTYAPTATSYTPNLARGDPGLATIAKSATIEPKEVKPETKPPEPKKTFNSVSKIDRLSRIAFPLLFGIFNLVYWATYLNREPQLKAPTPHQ
α1β2γ2 GABAA receptor, sequence (P18508 39-466, further chain): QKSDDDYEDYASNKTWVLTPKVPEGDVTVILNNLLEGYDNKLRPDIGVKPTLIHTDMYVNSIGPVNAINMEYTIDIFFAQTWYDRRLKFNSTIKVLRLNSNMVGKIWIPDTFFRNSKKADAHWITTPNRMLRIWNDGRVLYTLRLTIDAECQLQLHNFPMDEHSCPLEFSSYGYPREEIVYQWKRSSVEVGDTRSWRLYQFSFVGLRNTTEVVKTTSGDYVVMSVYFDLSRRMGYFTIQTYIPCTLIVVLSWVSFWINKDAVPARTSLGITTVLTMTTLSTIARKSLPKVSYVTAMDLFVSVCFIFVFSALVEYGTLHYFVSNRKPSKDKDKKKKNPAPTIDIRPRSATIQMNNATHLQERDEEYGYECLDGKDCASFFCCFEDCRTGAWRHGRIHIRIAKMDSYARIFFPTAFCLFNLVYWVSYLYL

## ^125I-rMmTX2 (peptide)
[1]
  Bmax (fmol/mg of synaptic protein): 264
  Kd: 0.51 nM
  half time duration of dissociation: 8 min
  koff: 0.0014 s⁻¹
  kon: 3.7e+06 M⁻¹ s⁻¹
[2]
  Kd: 0.38 nM
[3]
  Bmax (fmol/mg of SPM protein): 532
  Kd: 0.76 nM
  ratio of Bmax with/without PTX: 2.01
[4]
  t1/2 of dissociation: 7.97 min

## NCC(=O)O [glycine]
GABAA receptors in SPMs [5]
  competition with ^125I-rMmTX2 for binding to SPMs: does not compete

## α-bungarotoxin
GABAA receptors in SPMs [5]
  competition with ^125I-rMmTX2 for binding to SPMs: no competition is observed

## CCCC(C)C1(CC)C(=O)NC(=O)NC1=O (centres unmarked) [pentobarbital]
GABAA receptors in SPMs [5]
  nH (Hill slope) for reducing ^125I-MmTX2 binding: 0.98±0.07
  EC50: 4800 nM

## O=C(O)C1=CCNCC1 [isoguvacine]
GABAA receptors in SPMs [5]
  nH (Hill slope) for reducing ^125I-MmTX2 binding: 1.02±0.29
  EC50: 275000 nM

## NCc1cc(=O)[nH]o1 [[^3H]muscimol, reference compound]
GABAA receptors in SPMs [6]; SPMs, read-out: Kd of [^3H]muscimol (constrained fit parameter)
  Kd: 1.75 nM

B1: rMmTX1: recombinant MmTX1 from a periplasmic expression system (protein)
peptide: LTCKTCPFTTCPNSESCPGGQSICYQRKWEEHRGERIERRCVANCPAFGSHDTSLLCCTRDNCN
modifications: ends and bridges not checked
[7]
  effect on GABAA receptors in the absence of an agonist: no effect
  increase of GABAA receptor-mediated currents: up to 7 fold
[7]; 0.1 μM muscimol + 100 nM rMmTX1
  Factor of GABAA current increase: 7.9 ± 2.9 (n = 2)
[7]; 0.1 μM muscimol together with 100 nM rMmTX1
  Cl^− current: 228±30 pA
[7]; 100 nM rMmTX1
  muscimol concentration at the half-maximal potentiating effect of rMmTX1: about 1 μM
[7]; 0.3 μM muscimol + 100 nM rMmTX1
  Factor of GABAA current increase: 7.5 ± 1.2 (n = 4)
[7]; 0.3 μM muscimol together with 100 nM rMmTX1, neurons without response to muscimol alone
  inward current: 439±51 pA
[7]; 1.0 μM muscimol + 100 nM rMmTX1
  Factor of GABAA current increase: 1.9 ± 0.4 (n = 3)
[7]; 3 μM muscimol + 100 nM rMmTX1
  Factor of GABAA current increase: 1.4 ± 0.1 (n = 6)
[7]; 5 μM muscimol + 1 nM rMmTX1, n=9
  factor of GABAA current amplitude increase: 1.24 ± 0.07
[7]; 5 μM muscimol + 10 nM rMmTX1, n=9
  factor of GABAA current amplitude increase: 1.22 ± 0.03
[7]; 5 μM muscimol + 100 nM rMmTX1, n=9
  factor of GABAA current amplitude increase: 1.99 ± 0.28
[7]; 5 μM muscimol + 300 nM rMmTX1, n=9
  factor of GABAA current amplitude increase: 1.69 ± 0.25
[7]; 30 μM muscimol + 100 nM rMmTX1
  Factor of GABAA current increase: 1.0 ± 0.1 (n = 4)
[7]; 50 μM muscimol + 100 nM rMmTX1
  Factor of GABAA current increase: 1.0 ± 0.1 (n = 3)
[7]; muscimol concentrations greater than 10 μM
  toxin-induced potentiation at high muscimol: do not observe a toxin-induced potentiation
Mice [8]
  LD50: 0.027 mg/kg
  behavioral signs: reduced activity combined with severe seizures
GABAA receptors in SPMs [6]; 40 nM [^3H]muscimol
  part of the total [^3H]muscimol binding capacity competed for: about 40%
GABAA receptors in SPMs [6]; 40 nM [^3H]muscimol, allosteric modulator fit, read-out: Kd in competition with [^3H]muscimol
  Kd: 4.9 ± 0.2 nM
GABAA receptors in SPMs [5]
  displacing ^125I-rMmTX2 (in words): equally potent
  Ki: 3 nM
Mice [9]
  activity when injected intravenously: inactive

B2: rMmTX2: recombinant MmTX2 from a periplasmic expression system (protein)
peptide: LTCKTCPFTTCPNSESCPGGQSICYQRKWEEHHGERIERRCVANCPAFGSHDTSLLCCTRDNCN
modifications: ends and bridges not checked
Mice [8]
  LD50: 0.010 mg/kg
  behavioral signs: reduced activity combined with severe seizures
GABAA receptors in SPMs [5]
  displacing ^125I-rMmTX2 (in words): equally potent
  Ki: 3.7 nM
Mice [9]; injected intravenously into mice
  flaccid paralysis: no flaccid paralysis
Mice [9]
  activity when injected intravenously: inactive

B3: MmTX1 (protein, listed as Micrurus mipartitus)
chain: LTCKTCPFTTCPNSESCPGGQSICYQRKWEEHRGERIERRCVANCPAFGSHDTSLLCCTRDNCN
modifications: ends and bridges not checked
GABAA receptors in SPMs [5]
  displacing ^125I-rMmTX2 (in words): equally potent

B4: ^125I-rMmTX2: MmTX2 radioactively labeled by lacto-peroxidase-catalyzed iodination (protein)
peptide: LTCKTCPFTTCPNSESCPGGQSICYQRKWEEHHGERIERRCVANCPAFGSHDTSLLCCTRDNCN
modifications: ends and bridges not checked; also: 125I iodination (lactoperoxidase-catalysed), site not given here
GABAA receptors in SPMs [10]; 1 to 4 nM ligand, SPMs
  second-order kinetic constant of association (k+1): 3.7±0.5×10^6 M^−1 s^−1
GABAA receptors in SPMs [10]; dissociation after 1000-fold excess of unlabeled rMmTX2
  first-order kinetic constant (k−1): 0.0014 ± 0.0004 s⁻¹
GABAA receptors in SPMs [10]; dissociation from SPMs
  half time duration of dissociation: ~8 min
GABAA receptors in SPMs [10]; in the presence of 1 mM PTX, read-out: Kd with PTX
  Kd: 0.76 ± 0.18 nM
GABAA receptors in SPMs [10]; ratio of both kinetic constants, read-out: true dissociation value (Kd=k−1/k+1)
  Kd: 0.38 ± 0.05 nM
GABAA receptors in SPMs [10]; read-out: Kd (saturation binding at equilibrium)
  Kd: 0.51 ± 0.09 nM

B5: Fas 2: animal toxin that targets AChE (protein, UniProt P0C1Z0 1-61, looked up)
Fasciculin-2: TMCYSHTTTSRAILTNCGENSCYRKSRRHPPKMVLGRGCGCPPGDDNLEVKCCTSPDKCNY
modifications: ends and bridges not checked
GABAA receptors in SPMs [5]; ligand 10 μM
  competition with ^125I-rMmTX2 for binding to SPMs: does not compete

B6: sMmTX1-HRK: sMmTX1 mutated at 4His, 28Arg, 47Lys and acetylated at the N-terminus, SEQ ID NO: 21 (peptide)
chain: Ac-LTCHTCPFTTCPNSESCPGGQSICYQRRWEEHRGERIERRCVANCPKFGSHDTSLLCCTRDNCN
modifications: ends and bridges not checked
α1β2γ2 GABAA receptor; 100 nM muscimol + 100 nM toxin, −70 mV
  effect on α1β2γ2 GABAA receptor currents: currents are potentiated and receptor desensitization tends to accelerate
α1β2γ2 GABAA receptor; 300 nM muscimol
  effect on α1β2γ2 GABAA receptor currents: potentiating effect is diminished whereas desensitization effect is unaltered
